Common to all, as to assay: fluorescence polarisation
(In general: Polarisation of emitted light reports the rotation of a fluorescent probe.)

The target in assay [1] is monovalent ExoS L423A peptide, fluorescently labeled (Pseudomonas aeruginosa) (UniProt Q51451).
Assay [2] addresses bivalent ExoS L423A peptide, fluorescently labeled (Pseudomonas aeruginosa) (UniProt Q51451).
The target of assay [3] is bivalent wild-type ExoS peptide, fluorescently labeled (Pseudomonas aeruginosa).

With “tobacco 14-3-3 homodimer T14-3-3cΔC (domain or fragment)”, the Kd in assay [1] is 127 µM; in assay [2], 5.9 µM; in assay [3], 0.0455 µM.
